Results: patent publication US6441131

Tests used:
peptide of Example 2(7) = target: T1, peptide of Example 2(7)
T1 chain: PQQAXX

peptide of Example 2(33) = target: T2, peptide of Example 2(33)
T2 chain: PQEEXX

peptide of Example 2(24) = target: T3, peptide of Example 2(24)
T3 chain: PQQGXX

[1] = target: T4, Nα-Me-GlySerGlyAla(2-Naph)AlaAla-DCHA.TFMSA
T4 chain: GSGXAX

peptide of Example 2(16) = target: T5, peptide of Example 2(16)
T5 chain: NPQQAXX

peptide of Example 2(51) = target: T6, peptide of Example 2(51)
T6 chain: GLSEXX

peptide of Example 2(57) = target: T7, peptide of Example 2(57)
T7 chain: TLSEXX

peptide of Example 2(11) = target: T8, peptide of Example 2(11)
T8 chain: PQQAXX

peptide of Example 2(23) = target: T9, peptide of Example 2(23)
T9 chain: PQQQXX

peptide of Example 2(36) = target: T10, peptide of Example 2(36)
T10 chain: PNSEXX

peptide of Example 2(63) = target: T11, peptide of Example 2(63)
T11 chain: PNNLSEXX

peptide of Example 2(18) = target: T12, peptide of Example 2(18)
T12 chain: APQQAXX

peptide of Example 2(25) = target: T13, peptide of Example 2(25)
T13 chain: PQQMXX

peptide of Example 2(56) = target: T14, peptide of Example 2(56)
T14 chain: SLSEXX

peptide of Example 2(69) = target: T15, peptide of Example 2(69)
T15 chain: XLSEXX

[2] = target: T16, Nα-Me-GlyLeuSerGluAla(2-Naph)Ala-pNA.TFMSA
T16 chain: GLSEXX

peptide of Example 2(80) = target: T17, peptide of Example 2(80)
T17 chain: LSEXAX

peptide of Example 2(45) = target: T18, peptide of Example 2(45)
T18 chain: PTSEXX

[3] = target: T19, ProLeuSerGluAla(2-Naph)Ala-pNA
T19 chain: PLSEXX

peptide of Example 2(22) = target: T20, peptide of Example 2(22) (not fully specified)
T20 chain: PQQNXX

peptide of Example 2(54) = target: T21, peptide of Example 2(54)
T21 chain: KLSEXX

peptide of Example 2(78) = target: T22, peptide of Example 2(78)
T22 chain: LSEXAX

peptide of Example 2(34) = target: T23, peptide of Example 2(34)
T23 chain: PQDEXX

peptide of Example 2(14) = target: T24, peptide of Example 2(14)
T24 chain: KPQQAXX

peptide of Example 2(39) = target: T25, peptide of Example 2(39)
T25 chain: PMSEXX

peptide of Example 2(3) = target: T26, peptide of Example 2(3)
T26 chain: PQQAXX

peptide of Example 2(53) = target: T27, peptide of Example 2(53)
T27 chain: QLSEXX

peptide of Example 2(61) = target: T28, peptide of Example 2(61)
T28 chain: KNLSEXX

peptide of Example 2(83) = target: T29, peptide of Example 2(83)
T29 chain: GLSEXAX

B1: human pepsin I (protein)
chain: VDEQPLENYLDMEYFGTIGIGTPAQDFTVVFDTGSSNLWVPSVYCSSLACTNHNRFNPEDSSTYQSTSETVSITYGTGSMTGILGYDTVQVGGISDTNQIFGLSETEPGSFLYYAPFDGILGLAYPSISSSGATPVFDNIWNQGLVSQDLFSVYLSADDQSGSVVIFGGIDSSYYTGSLNWVPVTVEGYWQITVDSITMNGEAIACAEGCQAIVDTGTSLLTGPTSPIANIQSDIGASENSDGDMVVSCSAISSLPDIVFTINGVQYPVPPSAYILQSEGSCISGFQGMNLPTESGELWILGDVFIRQYFTVFDRANNQVGLAPVA
pepsin I digesting rate (µM/min · 1 µg Enz) (peptide of Example 2(7)): 0.0335 | pepsin I digesting rate (µM/min · 1 µg Enz) (peptide of Example 2(33)): 0.0632 | pepsin I digesting rate (µM/min · 1 µg Enz) (peptide of Example 2(24)): 0.0058 | pepsin I digesting rate (µM/min · 1 µg Enz) [1]: 0.277 | pepsin I digesting rate (µM/min · 1 µg Enz) (peptide of Example 2(16)): 0.0082 | pepsin I digesting rate (µM/min · 1 µg Enz) (peptide of Example 2(51)): 0.163 | pepsin I digesting rate (µM/min · 1 µg Enz) (peptide of Example 2(57)): 0.0284 | pepsin I digesting rate (µM/min · 1 µg Enz) (peptide of Example 2(11)): 0.0235 | pepsin I digesting rate (µM/min · 1 µg Enz) (peptide of Example 2(23)): 0.0191 | pepsin I digesting rate (µM/min · 1 µg Enz) (peptide of Example 2(36)): 0.11 | pepsin I digesting rate (µM/min · 1 µg Enz) (peptide of Example 2(63)): 0.176 | pepsin I digesting rate (µM/min · 1 µg Enz) (peptide of Example 2(18)): 0.0122 | pepsin I digesting rate (µM/min · 1 µg Enz) (peptide of Example 2(25)): 0.0063 | pepsin I digesting rate (µM/min · 1 µg Enz) (peptide of Example 2(56)): 0.0194 | pepsin I digesting rate (µM/min · 1 µg Enz) (peptide of Example 2(69)): 0.985 | pepsin I digesting rate (µM/min · 1 µg Enz) [2]: 0.313 | pepsin I digesting rate (µM/min · 1 µg Enz) (peptide of Example 2(80)): 0.15 | pepsin I digesting rate (µM/min · 1 µg Enz) (peptide of Example 2(45)): 0.251 | pepsin I digesting rate (µM/min · 1 µg Enz) [3]: 0.28 | pepsin I digesting rate (µM/min · 1 µg Enz) (peptide of Example 2(22)): 0.0578 | pepsin I digesting rate (µM/min · 1 µg Enz) (peptide of Example 2(54)): 0.274 | pepsin I digesting rate (µM/min · 1 µg Enz) (peptide of Example 2(78)): 2.62 | pepsin I digesting rate (µM/min · 1 µg Enz) (peptide of Example 2(34)): 0.0216 | pepsin I digesting rate (µM/min · 1 µg Enz) (peptide of Example 2(14)): 0.0094 | pepsin I digesting rate (µM/min · 1 µg Enz) (peptide of Example 2(39)): 0.228 | pepsin I digesting rate (µM/min · 1 µg Enz) (peptide of Example 2(3)): 0.002 | pepsin I digesting rate (µM/min · 1 µg Enz) (peptide of Example 2(53)): 0.0998 | pepsin I digesting rate (µM/min · 1 µg Enz) (peptide of Example 2(61)): 0.168 | pepsin I digesting rate (µM/min · 1 µg Enz) (peptide of Example 2(83)): 2.37

B2: human pepsin II (protein)
chain: SVTYEPMAYMDAAYFGEISIGTPPQNFLVLFDTGSSNLWVPSVYCQSQACTSHSRFNPSESSTYSTNGQTFSLQYGSGSLTGFFGYDTLTVQSIQVPNQEFGLSENEPGTNFVYAQFDGIMGLAYPALSVDEATTAMQGMVQEGALTSPVFSVYLSNQQGSSGGAVVFGGVDSSLYTGQIYWAPVTQELYWQIGIEEFLIGGQASGWCSEGCQAIVDTGTSLLTVPQQYMSALLQATGAQEDEYGQFLVNCNSIQNLPSLTFIINGVEFPLPPSSYILSNNGYCTVGVEPTYLSSQNGQPLWILGDVFLRSYYSVYDLGNNRVGFATAA
pepsin II digesting rate (µM/min · 1 µg Enz) (peptide of Example 2(7)): 3.5 | ration of digesting rate (pepsin II/ pepsin I) (peptide of Example 2(7)): 104 | pepsin II digesting rate (µM/min · 1 µg Enz) (peptide of Example 2(33)): 25.4 | ration of digesting rate (pepsin II/ pepsin I) (peptide of Example 2(33)): 402 | pepsin II digesting rate (µM/min · 1 µg Enz) (peptide of Example 2(24)): 12.1 | ration of digesting rate (pepsin II/ pepsin I) (peptide of Example 2(24)): 2080 | pepsin II digesting rate (µM/min · 1 µg Enz) [1]: 33.1 | ration of digesting rate (pepsin II/ pepsin I) [1]: 120 | pepsin II digesting rate (µM/min · 1 µg Enz) (peptide of Example 2(16)): 8.95 | ration of digesting rate (pepsin II/ pepsin I) (peptide of Example 2(16)): 1090 | pepsin II digesting rate (µM/min · 1 µg Enz) (peptide of Example 2(51)): 54.4 | ration of digesting rate (pepsin II/ pepsin I) (peptide of Example 2(51)): 334 | pepsin II digesting rate (µM/min · 1 µg Enz) (peptide of Example 2(57)): 18.8 | ration of digesting rate (pepsin II/ pepsin I) (peptide of Example 2(57)): 661 | pepsin II digesting rate (µM/min · 1 µg Enz) (peptide of Example 2(11)): 4.1 | ration of digesting rate (pepsin II/ pepsin I) (peptide of Example 2(11)): 175 | pepsin II digesting rate (µM/min · 1 µg Enz) (peptide of Example 2(23)): 5.9 | ration of digesting rate (pepsin II/ pepsin I) (peptide of Example 2(23)): 309 | pepsin II digesting rate (µM/min · 1 µg Enz) (peptide of Example 2(36)): 21.2 | ration of digesting rate (pepsin II/ pepsin I) (peptide of Example 2(36)): 194 | pepsin II digesting rate (µM/min · 1 µg Enz) (peptide of Example 2(63)): 29.8 | ration of digesting rate (pepsin II/ pepsin I) (peptide of Example 2(63)): 169 | pepsin II digesting rate (µM/min · 1 µg Enz) (peptide of Example 2(18)): 9.2 | ration of digesting rate (pepsin II/ pepsin I) (peptide of Example 2(18)): 757 | pepsin II digesting rate (µM/min · 1 µg Enz) (peptide of Example 2(25)): 5.56 | ration of digesting rate (pepsin II/ pepsin I) (peptide of Example 2(25)): 890 | pepsin II digesting rate (µM/min · 1 µg Enz) (peptide of Example 2(56)): 10.9 | ration of digesting rate (pepsin II/ pepsin I) (peptide of Example 2(56)): 563 | pepsin II digesting rate (µM/min · 1 µg Enz) (peptide of Example 2(69)): 73.1 | ration of digesting rate (pepsin II/ pepsin I) (peptide of Example 2(69)): 74.2 | pepsin II digesting rate (µM/min · 1 µg Enz) [2]: 49.6 | ration of digesting rate (pepsin II/ pepsin I) [2]: 158 | pepsin II digesting rate (µM/min · 1 µg Enz) (peptide of Example 2(80)): 15.8 | ration of digesting rate (pepsin II/ pepsin I) (peptide of Example 2(80)): 105 | pepsin II digesting rate (µM/min · 1 µg Enz) (peptide of Example 2(45)): 40.5 | ration of digesting rate (pepsin II/ pepsin I) (peptide of Example 2(45)): 161 | pepsin II digesting rate (µM/min · 1 µg Enz) [3]: 55.4 | ration of digesting rate (pepsin II/ pepsin I) [3]: 198 | pepsin II digesting rate (µM/min · 1 µg Enz) (peptide of Example 2(22)): 12.9 | ration of digesting rate (pepsin II/ pepsin I) (peptide of Example 2(22)): 223 | pepsin II digesting rate (µM/min · 1 µg Enz) (peptide of Example 2(54)): 48.4 | ration of digesting rate (pepsin II/ pepsin I) (peptide of Example 2(54)): 177 | pepsin II digesting rate (µM/min · 1 µg Enz) (peptide of Example 2(78)): 54.4 | ration of digesting rate (pepsin II/ pepsin I) (peptide of Example 2(78)): 20.7 | pepsin II digesting rate (µM/min · 1 µg Enz) (peptide of Example 2(34)): 15.4 | ration of digesting rate (pepsin II/ pepsin I) (peptide of Example 2(34)): 712 | pepsin II digesting rate (µM/min · 1 µg Enz) (peptide of Example 2(14)): 3.85 | ration of digesting rate (pepsin II/ pepsin I) (peptide of Example 2(14)): 410 | pepsin II digesting rate (µM/min · 1 µg Enz) (peptide of Example 2(39)): 45.8 | ration of digesting rate (pepsin II/ pepsin I) (peptide of Example 2(39)): 201 | pepsin II digesting rate (µM/min · 1 µg Enz) (peptide of Example 2(3)): 4.23 | ration of digesting rate (pepsin II/ pepsin I) (peptide of Example 2(3)): 2070 | pepsin II digesting rate (µM/min · 1 µg Enz) (peptide of Example 2(53)): 62 | ration of digesting rate (pepsin II/ pepsin I) (peptide of Example 2(53)): 621 | pepsin II digesting rate (µM/min · 1 µg Enz) (peptide of Example 2(61)): 36.8 | ration of digesting rate (pepsin II/ pepsin I) (peptide of Example 2(61)): 219 | pepsin II digesting rate (µM/min · 1 µg Enz) (peptide of Example 2(83)): 70.7 | ration of digesting rate (pepsin II/ pepsin I) (peptide of Example 2(83)): 29.9
